In patent US20130189714A1, “METHOD FOR THE DETECTION AND/OR QUANTIFICATION OF THE INTERACTION OF PLATELETS WITH INTERACTION PARTNERS” (SANOFI, priority 2010, published 2013) one finds S/B, S/B (number platelets attached to vWF-A1 vs BSA) and % inhibition of platelet adhesion data, which are given here for 3 substances.

The target of assay [1] is platelet glycoprotein GpIb alpha (CD42b antigen), on live human platelets (human) (UniProt P07359). Briefly: platelet adhesion to vWF-A1 coated wells vs BSA, automated run of 30 plates, Acumen cytometry.
platelet glycoprotein GpIb alpha (CD42b antigen), on live human platelets (human), sequence (P07359 17-652): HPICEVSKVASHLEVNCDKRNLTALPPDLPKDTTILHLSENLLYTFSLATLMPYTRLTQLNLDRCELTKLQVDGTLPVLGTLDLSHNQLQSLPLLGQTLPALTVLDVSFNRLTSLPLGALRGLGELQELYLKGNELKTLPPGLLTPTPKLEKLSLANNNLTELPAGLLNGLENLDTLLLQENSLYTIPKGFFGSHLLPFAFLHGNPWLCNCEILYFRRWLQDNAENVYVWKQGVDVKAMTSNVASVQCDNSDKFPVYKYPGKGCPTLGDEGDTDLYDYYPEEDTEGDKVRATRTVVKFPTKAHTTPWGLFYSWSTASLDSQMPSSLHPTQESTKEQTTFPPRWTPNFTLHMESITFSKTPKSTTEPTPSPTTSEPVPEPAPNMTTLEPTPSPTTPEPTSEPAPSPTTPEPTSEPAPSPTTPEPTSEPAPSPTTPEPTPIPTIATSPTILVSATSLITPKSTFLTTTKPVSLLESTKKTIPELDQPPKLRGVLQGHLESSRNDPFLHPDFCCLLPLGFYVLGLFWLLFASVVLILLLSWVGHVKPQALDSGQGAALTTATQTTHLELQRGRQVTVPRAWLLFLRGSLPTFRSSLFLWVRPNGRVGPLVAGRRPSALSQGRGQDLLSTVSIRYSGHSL
Assay [2] has the same target. The assay can be described thus: platelet adhesion to coated wells, optimized wash program, Acumen cytometry; reference BSA-coated wells.
For assay [3] the target is unchanged. Briefly: platelet adhesion to vWF-A1 coated wells vs BSA-coated wells, optimized washer settings, Acumen cytometry.
For assay [4] the target is unchanged. Briefly: platelet adhesion to vWF-A1 coated wells, AK2 at 2 ug/ml, Acumen cytometry.
The target of assay [5] is collagen receptor on live human platelets (human). Briefly: platelet adhesion to rat tail collagen 1 coated wells vs BSA, 6 plates under automated conditions, Acumen cytometry.

vWF-A1 (von Willebrand factor A1 domain, Aa 475-706), His-tagged recombinant protein (ligand), sequence (chain): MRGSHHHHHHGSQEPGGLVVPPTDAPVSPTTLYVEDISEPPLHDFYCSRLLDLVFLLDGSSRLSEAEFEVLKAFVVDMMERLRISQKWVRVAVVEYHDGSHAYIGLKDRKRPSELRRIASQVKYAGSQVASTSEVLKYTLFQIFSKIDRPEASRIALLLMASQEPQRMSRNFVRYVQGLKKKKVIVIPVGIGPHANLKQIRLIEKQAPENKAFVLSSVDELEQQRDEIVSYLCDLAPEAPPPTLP

As to “vWF-A1 (von Willebrand factor A1 domain, Aa 475-706), His-tagged recombinant protein (ligand)”, the results for the S/B in assay [1] and in assay [3] were 20 fold and 78 fold, respectively. Besides, the S/B (number platelets attached to vWF-A1 vs BSA) in assay [2] turned out to be 70 fold.
Take “Mouse anti-human CD42b monoclonal antibody, clone AK2 (Chemicon international, catalog No. CBL166)”: the % inhibition of platelet adhesion in assay [4] amounted to 90%.
With “Collagen I (rat tail, SIGMA C8897) (from UniProt P02454 152-1207; P02466 86-1125) (ligand)”, the S/B in assay [5] was 20 fold.
